Test results taken from PMC2658021.

Molecular target: C-terminally FLAG-tagged HPIV3 P protein (P-FLAG) (human parainfluenza virus type 3 (HPIV3)) (UniProt P06162)
Test: co-IP

Chain of UniProt P06162 (P06162 whole entry): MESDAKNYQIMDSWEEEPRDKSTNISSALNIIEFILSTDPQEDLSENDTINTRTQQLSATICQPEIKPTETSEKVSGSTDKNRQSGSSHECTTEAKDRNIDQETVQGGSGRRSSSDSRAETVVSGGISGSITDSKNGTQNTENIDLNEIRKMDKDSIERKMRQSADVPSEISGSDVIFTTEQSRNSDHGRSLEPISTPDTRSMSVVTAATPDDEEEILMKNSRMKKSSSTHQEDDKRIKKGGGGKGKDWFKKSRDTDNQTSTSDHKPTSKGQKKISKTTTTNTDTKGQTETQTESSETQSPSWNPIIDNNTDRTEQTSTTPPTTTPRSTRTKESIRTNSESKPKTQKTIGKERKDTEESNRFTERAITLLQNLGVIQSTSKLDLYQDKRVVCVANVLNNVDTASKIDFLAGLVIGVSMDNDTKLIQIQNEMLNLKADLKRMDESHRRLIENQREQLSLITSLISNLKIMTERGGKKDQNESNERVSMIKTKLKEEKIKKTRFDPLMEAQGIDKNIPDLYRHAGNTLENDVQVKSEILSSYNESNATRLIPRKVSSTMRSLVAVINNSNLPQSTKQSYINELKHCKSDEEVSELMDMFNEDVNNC

L N960, non-tagged (from UniProt P12577 1-960) (domain or fragment)
binding as percent of Lwt (phosphoimager): 26.8 % of Lwt
